Results taken from patent US20250269018A1, “COMBINED CANCER THERAPY WITH AN EPITHELIAL CELL ADHESION MOLECULE (EPCAM) INHIBITOR AND A HEPATOCYTE GROWTH FACTOR RECEPTOR (HGFR) INHIBITOR” (ACADEMIA SINICA, priority 2021, published 2025).

B1: EpAb2-6: anti-EpCAM neutralizing monoclonal antibody targeting EpEX; VH SEQ ID NO: 15, VL SEQ ID NO: 16 (antibody, listed as Homo sapiens, V domains shown)
VH: VKLQESGPELKKPGETVKISCKASGYTFTDYSMHWVKQAPGKGLKWMGWINTETGEPTYADDFKGRFAFSLETSASTAYLQINNLKNEDTATYFCARTAVYWGQGTTVTVSS
VL: DIQMTQSPSSLSASLGERVSLTCRASQEISVSLSWLQQEPDGTIKRLIYATSTLDSGVPKRFSGSRSGSDYSLTISSLESEDFVDYYCLQYASYPWTFGGGTKLEIKRADAAPTVS

How the values were obtained:
HGFR signaling = assay: Western blotting of phosphorylated HGFR, AKT, ERK, FAK in HCT116 cells; format: cell-based, human; settings: for phosphorylation of HGFR, AKT, and ERK: FIG. 7D
Description: FIGS. 2A to 2K. EpEX promotes tumor progression via HGFR signaling. (FIG. 2A) WT or EpCAM knockout (KO) HCT116 and HT29 cells treated with HGF (0.5 nM) for 15 min. The phosphorylation of HGFR, AKT, and ERK was examined by Western blotting. (FIG. 2B) WT or KO HCT116 and HT29 cells were treated with HGF (0.5 nM) with 2% FBS for the indicated times. Cell growth was examined by the WST-1 assay. (FIG. 2C) Starved HCT116 cells were treated with HGFR inhibitor SU11274 (SU, 10 μM) for 1 h then treated with 50 nM of EpEX-His for 15 min. The levels of phosphorylated HGFR, EGFR, AKT, and ERK were examined by Western blotting. HCT116 and HT29 cells were treated with 50 nM EpEX and SU (10 μM). (FIG. 2D) Cell growth was examined by WST-1 assay after treatment for indicated time. (FIG. 2E) HCT116 cells were treated with shLuc or HGFR shRNA then treated with 50 nM of EpEX-His for 15 min. The levels of phosphorylated HGFR, EGFR, ERK, and AKT were examined in HGFR knockdown HCT116 cells by Western blotting. (FIG. 2F) The levels of phosphorylated ADAM17 and presenilin 2 were examined by Western blotting. (FIG. 2G) Active β-catenin nuclear translocation was assay by using Western blotting. (H) HCT116 cells were treated with shLuc or HGFR shRNA then treated with 50 nM of EpEX-His for indicated times. Cell growth was examined by the WST-1 assay. (FIG. 2I) HCT116 cells after shLuc and shHGFR treatment were treated with 50 nM of EpEX-His with 2% FBS for 7 days. Colony formation was examined by crystal violet staining.
FIGS. 6A to 6J. EpAb2-6 inhibits EpCAM and HGFR signaling and promotes active β-catenin and Snail protein degradation via activating GSK3β. (FIG. 6A) HCT116 cells were treated with 10 μg/ml control IgG (normal mouse IgG, NMIgG) or mouse EpAb2-6 (EpAb2-6) for 16 h, followed by treatment with EpEX-His (50 nM) for 15 min. Levels of phosphorylated HGFR, AKT, FAK, GSK3β, ERK, ADAM17, and presenilin 2 were examined by Western blotting. (FIG. 6B) HCT116 cells were treated with 10 μg/ml control IgG or mouse EpAb2-6 for 16 h, followed by treatment without or with HGF (0.5 nM) for 15 min. Levels of phosphorylated HGFR, AKT, and ERK were examined by Western blotting. HCT116 cells were treated with mouse EpAb2-6 (10 μg/ml) and HGF (0.5 nM). (FIG. 6C) Cell migration was examined by the wound healing assay at the indicated times. (FIG. 6D) Cell invasion was assessed by a Transwell assay with matrigel after 24 h. (FIG. 6E) HCT116 cells were treated with NMIgG or EpAb2-6 for 6 h and then immunoprecipitated with anti-EpCAM (IP: EpCAM) or anti-HGFR (IP: HGFR) antibodies, followed by Western blotting. (FIG. 6F) EpEX-His (2 μg/ml) co-treated with 1 μg IgG or EpAb2-6 was added to HGFR-Fc-coated (1 μg/ml) ELISA plates and detected by TMB colorimetric peroxidase assay. (FIG. 6G) EMT associated protein levels were detected by Western blotting in HCT116 cells treated with NMIgG or EpAb2-6 for 24 h. (FIG. 6H) Protein expression was analyzed by Western blotting in HCT116 cells after treatment with EpAb2-6 and 2 μM GSK3β inhibitor (BIO) for 24 h. Quantification of the normalized protein expression in the bottom panel. (FIG. 6I) HCT116 cells were treated with 10 μM MG132 and EpAb2-6 for 6 h before cell collection and subsequent Western blotting. (FIG. 6J) Stability of Snail protein in HCT116 cells treated with NMIgG or EpAb2-6. Cells were treated with cyclohexamide (CHX) 100 μg/ml at the indicated intervals and subjected to Western blotting.
FIGS. 7A to 7G. EpAb2-6 binds EpEX and induces apoptosis by F(ab′)2 and inhibits regulated intramembrane proteolysis (RIP) activation and HGFR signaling. (FIG. 7A) Binding affinity of IgG EpAb2-6 (mouse) and F(ab′)2 to EpEX-His (1 μg/ml) coated overnight was checked using ELISA (OD450). (FIG. 7B) HCT116 cells were treated with 100 μg/ml control IgG, Fc, or F(ab′)2 of EpAb2-6 for 24 h. The apoptotic and necrotic cells were quantified by fluorescein annexin V-FITC/PI double labeling. […]

cancer cells = settings: comparison in the description; previous work; cited from earlier work
[1] = HCT116, 10 μg/ml 16 h, then EpEX-His 50 nM 15 min

Molecule | phosphorylation of HGFR, AKT, and ERK (HGFR signaling; [1]) | inducing apoptosis of cancer cells (cancer cells) | EpEX-mediated ERK and AKT phosphorylation (HGFR signaling; HCT116 cells, SU 10 μM 1 h, then 50 nM EpEX-His 15 min, FIG. 2C) | phosphorylation of HGFR, AKT, ERK, and FAK (HGFR signaling; HCT116, 10 μg/ml 16 h, then EpEX-His 50 nM 15 min, vs control IgG, FIG. 6A) | phosphorylation levels of HGFR, AKT, and ERK (HGFR signaling; HCT116, 10 μg/ml 16 h, without or with HGF 0.5 nM 15 min, FIG. 6B) | levels of phosphorylated HGFR (HGFR signaling; after EpAb2-6 treatment, discussion statement)
MT201: human anti-EpCAM antibody, adecatumumab (MT201) | did not | failing to | – | – | – | –
Cc1[nH]c(C=C2C(=O)Nc3ccc(S(=O)(=O)N(C)c4cccc(Cl)c4)cc32)c(C)c1C(=O)N1CCN(C)CC1 (stereo in doubt) [SU11274, (3Z)-N-(3-Chlorophenyl)-3-({3,5-dimethyl-4-[(4-methylpiperazin-1-yl)carbonyl]-1H-pyrrol-2-yl}methylene)-N-methyl-2-oxo-2,3-dihydro-1H-indole-5-sulfonamide] | – | – | attenuate EpEX-mediated ERK and AKT phosphorylation | – | – | –
B1 | inhibited phosphorylation of HGFR, AKT, and ERK | induces cancer cell apoptosis | – | decreased phosphorylation of HGFR, AKT, ERK, and FAK | significantly decreased | decreased levels of phosphorylated HGFR
